In the supplement of paper PMC11246515:
± gives the standard deviation of the averaged measurements.

Assay: total protein half-life in vivo (active degradation + dilution); higher = more stable protein
[1] = E. coli NCM3722 delta-clpP delta-lon delta-hslV, growth: N-lim chemostat, doubling time 6 h
[2] = E. coli NCM3722 delta-clpP, growth: N-lim chemostat, doubling time 6 h
[3] = E. coli NCM3722 delta-hslV, growth: N-lim chemostat, doubling time 6 h
[4] = E. coli NCM3722 delta-lon, growth: N-lim chemostat, doubling time 6 h
[5] = E. coli NCM3722 delta-smpB, growth: N-lim chemostat, doubling time 6 h
[6] = wild type E. coli NCM3722, growth: C-lim chemostat, doubling time 3 h
[7] = wild type E. coli NCM3722, growth: C-lim chemostat, doubling time 6 h
[8] = wild type E. coli NCM3722, growth: C-lim chemostat, doubling time 12 h
[9] = wild type E. coli NCM3722, growth: N-lim chemostat, doubling time 6 h
[10] = wild type E. coli NCM3722, growth: P-lim chemostat, doubling time 12 h
[11] = wild type E. coli NCM3722, growth: N-lim chemostat, doubling time 12 h
[12] = wild type E. coli NCM3722, growth: P-lim chemostat, doubling time 6 h

Sequence	total protein half-life in vivo [1]	total protein half-life in vivo [2]	total protein half-life in vivo [3]	total protein half-life in vivo [4]	total protein half-life in vivo [5]	total protein half-life in vivo [6]	total protein half-life in vivo [7]	total protein half-life in vivo [8]	total protein half-life in vivo [9]	total protein half-life in vivo [10]	total protein half-life in vivo [11]	total protein half-life in vivo [12]
MFAVSSRRVLPGFTLSLGTSLLFVCLILLLPLSALVMQLAQMSWAQYWEVITNPQVVAAYKVTLLSAFVASIFNGVFGLLMAWILTRYRFPGRTLLDALMDLPFALPTAVAGLTLASLFSVNGFYGEWLAKFDIKVTYTWLGIAVAMAFTSIPFVVRTVQPVLEELGPEYEEAAETLGATRWQSFCKVVLPELSPALVAGVALSFTRSLGEFGAVIFIAGNIAWKTEVTSLMIFVRLQEFDYPAASAIASVILAASLLLLFSINTLQSRFGRRVVGH	7.77 h	6.57 h	4.7 h	4.58 h	2.4 h	3.13 ± 0.25 h	4.2551 ± 0.0035 h	7.05 h	4.83 ± 0.59 h	10.2 ± 1.2 h		
MKTRIHVVQGDITKLAVDVIVNAANPSLMGGGGVDGAIHRAAGPALLDACLKVRQQQGDCPTGHAVITLAGDLPAKAVVHTVGPVWRGGEQNEDQLLQDAYLNSLRLVAANSYTSVAFPAISTGVYGYPRAAAAEIAVKTVSEFITRHALPEQVYFVCYDEENAHLYERLLTQQGDE [P0A8D6]		4.32 ± 0.98 h	4.02 ± 0.17 h	4.294 ± 0.033 h	3.89 ± 0.28 h		5.89 ± 0.66 h	9.58 ± 0.72 h	4.63 ± 0.32 h	12 ± 0.23 h	6.81 ± 0.32 h	5.95 ± 0.57 h
MTNLTLDVNIIDFPSIPVAMLPHRCSPELLNYSVAKFIMWRKETGLSPVNQSQTFGVAWDDPATTAPEAFRFDICGSVSEPIPDNRYGVSNGELTGGRYAVARHVGELDDISHTVWGIIRHWLPASGEKMRKAPILFHYTNLAEGVTEQRLETDVYVPLA	6.15 h											
MAEGKAMSEFLPFSRPAMGVEELAAVKEVLESGWITTGPKNQALEQAFCQLTGNQHAIAVSSATAGMHITLMALKIGKGDEVITPSLTWVSTLNMISLLGATPVMVDVDRDTLMVTPEAIESAITPRTKAIIPVHYAGAPADIDAIRAIGERYGIAVIEDAAHAVGTYYKGRHIGAKGTAIFSFHAIKNITCAEGGLIVTDNENLARQLRMLKFHGLGVDAYDRQTWGRAPQAEVLTPGYKYNLTDINAAIALTQLVKLEHLNTRRREIAQQYQQALAALPFQPLSLPAWPHVHAWHLFIIRVDEQRCGISRDALMEALKERGIGTGLHFRAAHTQKYYRERFPTLSLPNTEWNSERICSLPLFPDMTTADADHVITALQQLAGQ	4.86 ± 0.74 h	3.7 ± 0.29 h	3.72 ± 0.19 h	4.52 ± 0.06 h	3.93 ± 0.41 h	3.52 ± 0.55 h	4.78 ± 0.6 h	9.35 ± 0.95 h	3.78 ± 0.055 h	11.7 ± 0.21 h	6.38 ± 0.47 h	5.53 ± 0.55 h
MEGWQRAFVLHSRPWSETSLMLDVFTEESGRVRLVAKGARSKRSTLKGALQPFTPLLLRFGGRGEVKTLRSAEAVSLALPLSGITLYSGLYINELLSRVLEYETRFSELFFDYLHCIQSLAGVTGTPEPALRRFELALLGHLGYGVNFTHCAGSGEPVDDTMTYRYREEKGFIASVVIDNKTFTGRQLKALNAREFPDADTLRAAKRFTRMALKPYLGGKPLKSRELFRQFMPKRTVKTHYE [P0A7H3]		2.812 ± 0.027 h		> 8 h		1.98 h		2.57 h		4.34 h	2.87 h	
METYAVFGNPIAHSKSPFIHQQFAQQLNIEHPYGRVLAPINDFINTLNAFFSAGGKGANVTVPFKEEAFARADELTERAALAGAVNTLMRLEDGRLLGDNTDGVGLLSDLERLSFIRPGLRILLIGAGGASRGVLLPLLSLDCAVTITNRTVSRAEELAKLFAHTGSIQALSMDELEGHEFDLIINATSSGISGDIPAIPSSLIHPGIYCYDMFYQKGKTPFLAWCEQRGSKRNADGLGMLVAQAAHAFLLWHGVLPDVEPVIKQLQEELSA	4 ± 0.39 h	4.39 ± 0.89 h	4.03 ± 0.27 h	6.18 ± 2.5 h	3.9 ± 0.14 h	2.4 ± 0.59 h	5.428 ± 0.014 h	8.94 ± 2.3 h	4.16 ± 0.36 h	11.7 ± 1.5 h	6.95 ± 0.015 h	6.01 ± 0.18 h
MANPEQLEEQREETRLIIEELLEDGSDPDALYTIEHHLSADDLETLEKAAVEAFKLGYEVTDPEELEVEDGDIVICCDILSECALNADLIDAQVEQLMTLAEKFDVEYDGWGTYFEDPNGEDGDDEDFVDEDDDGVRH [P0AF90]	5.62 ± 0.39 h	4 ± 0.52 h	3.94 ± 0.18 h	5.36 ± 0.26 h	3.73 ± 0.12 h	2.08 h	5.51 ± 1.6 h	8.63 ± 2.2 h	4.14 h	6.57 ± 0.075 h	7.72 ± 1.9 h	2.61 ± 0.039 h
MKLNATYIKIRDKWWGLPLFLPSLILPIFAHINTFAHISSGEVFLFYLPLALMISMMMFFSWAALPGIALGIFVRKYAELGFYETLSLTANFIIIIILCWGGYRVFTPRRNNVSHGDTRLISQRIFWQIVFPATLFLILFQFAAFVGLLASRENLVGVMPFNLGTLINYQALLVGNLIGVPLCYFIIRVVRNPFYLRSYYSQLKQQVDAKVTKKEFALWLLALGALLLLLCMPLNEKSTIFSTNYTLSLLLPLMMWGAMRYGYKLISLLWAVVLMISIHSYQNYIPIYPGYTTQLTITSSSYLVFSFIVNYMAVLATRQRAVVRRIQRLAYVDPVVHLPNVRALNRALRDAPWSALCYLRIPGMEMLVKNYGIMLRIQYKQKLSHWLSPLLEPGEDVYQLSGNDLALRLNTESHQERITALDSHLKQFRFFWDGMPMQPQIGVSYCYVRSPVNHIYLLLGELNTVAELSIVTNAPENMQRRGAMYLQRELKDKVAMMNRLQQALEHNHFFLMAQPITGMRGDVYHEILLRMKGENDELISPDSFLPVAHEFGLSSSIDMWVIEHTLQFMAENRAKMPAHRFAINLSPTSVCQARFPVEVSQLLAKYQIEAWQLIFEVTESNALTNVKQAQITLQHLQELGCQIAIDDFGTGYASYARLKNVNADLLKIDGSFIRNIVSNSLDYQIVASICHLARMKKMLVVAEYVENEEIREAVLSLGIDYMQGYLIGKPQPLIDTLNEIEPIRESA	5.56 h					2.98 h	5.24 h	9.12 h	4.99 h	11.5 h	6.22 h	
